Data published in US20190144529A1 (UCB, published 2019).
Several values for one entry are separate records, joined by “and”; a condition that tells them apart may be missing. Equal values may be shown once. Read-outs that look alike come from different tables or passages of the source.

Assays:
human serum albumin [1] = target: T1, human serum albumin (human, UniProt P02768 25-609); experiment: SPR, Fab captured; albumin taken as HSA
T1 construct: mature; Bought purified serum albumin; also called HSA; Human albumin
Description: (§1) Each assay cycle consisted of firstly capturing the antibody sample using a 1 min injection, before an association phase consisting of a 3 min injection of albumin, after which dissociation was monitored. After each cycle, the capture surface was regenerated with two 1 min injections of 40 mM HCl followed by 30 s of 5 mM NaOH. The flow rates used were 10 μl/min for capture, 30 μl/min for both the association and dissociation phases, and 10 μl/min for regeneration. A blank flow-cell was used for reference subtraction and buffer-blank injections were included to subtract instrument noise and drift.

human serum albumin [2] = target: T1, human serum albumin; experiment: SPR at pH 6.0
Description: (§2) For analysis at pH 7.0, 6.0, 5.5 and 5.0, a running buffer of 40 mM citric acid, 80 mM sodium phosphate 50 mM NaCl, 3 mM EDTA, 0.05% v/v P20 was used. The required pH was achieved by altering the ratio of citric acid to sodium phosphate. All experiments were performed at 25° C. The antibody samples were captured to the sensor chip surface using either a human F(ab′)₂-specific or human Fc-specific goat Fab (Jackson ImmunoResearch). Covalent immobilisation of the capture antibody was achieved by standard amine coupling chemistry to a level of 6000-7000 response units (RU).
as §1

human serum albumin [3] = target: T1, human serum albumin; experiment: SPR, Fab captured; albumin taken as HSA; remark: listed apart in the source
Description: as §1

rabbit serum albumin [4] = target: T2, rabbit serum albumin (rabbit, UniProt P49065 25-608); experiment: SPR
T2 construct: mature; Bought purified serum albumin; also called RbSA; Rabbit albumin
Description: as §2, §1

mouse serum albumin [5] = target: T3, mouse serum albumin (mouse, UniProt P07724 25-608); experiment: SPR
T3 construct: mature; Bought purified serum albumin; also called MSA; Mouse albumin
Description: as §2, §1

rat serum albumin [6] = target: T4, rat serum albumin (rat, UniProt P02770 25-608); experiment: SPR
T4 construct: mature; Bought purified serum albumin; also called RSA; Rat albumin
Description: as §2, §1

human serum albumin [7] = target: T1, human serum albumin; experiment: SPR at pH 5.0
Description: as §2, §1

human serum albumin [8] = target: T1, human serum albumin; experiment: SPR, Fab captured; albumin taken as HSA; remark: listed apart in the source
Description: as §1

human serum albumin [9] = target: T1, human serum albumin; experiment: SPR, Fab captured, HSA
Description: as §2, §1

human serum albumin [10] = target: T1, human serum albumin; experiment: SPR at pH 7.0
Description: as §2, §1

human serum albumin [11] = target: T1, human serum albumin; experiment: SPR, Fab captured, albumin titrated
Description: as §2, §1

rabbit serum albumin [12] = target: T2, rabbit serum albumin; experiment: SPR, Fab captured, albumin titrated
Description: as §2, §1

mouse serum albumin [13] = target: T3, mouse serum albumin; experiment: SPR, Fab captured, albumin titrated
Description: as §2, §1

rat serum albumin [14] = target: T4, rat serum albumin; experiment: SPR, Fab captured, albumin titrated
Description: as §2, §1

cynomolgus serum albumin = target: T5, cynomolgus serum albumin (cynomolgus, UniProt A2V9Z4 25-608); experiment: SPR, Fab captured, albumin titrated
T5 construct: mature; Bought purified serum albumin; also called CSA; Cynomolgus albumin
Description: as §2, §1

bovine serum albumin = target: T6, bovine serum albumin (bovine, UniProt P02769 25-607); experiment: SPR, Fab captured, albumin titrated
T6 construct: mature; Bought purified serum albumin; also called BSA; Bovine albumin
Description: as §2, §1

human serum albumin [15] = target: T1, human serum albumin; experiment: SPR, Fab captured, albumin titrated; remark: listed apart in the source
Description: as §2, §1

mouse serum albumin [16] = target: T3, mouse serum albumin; experiment: SPR, Fab captured, albumin titrated; remark: listed apart in the source
Description: as §2, §1

human serum albumin [17] = target: T1, human serum albumin; experiment: SPR at pH 5.5

B1: CA645 gL4gH5 Fab (Fab, V domains shown)
VH: EVQLLESGGGLVQPGGSLRLSCAVSGIDLSNYAINWVRQAPGKGLEWIGIIWASGTTFYATWAKGRFTISRDNSKNTVYLQMNSLRAEDTAVYYCARTVPGYSTAPYFDLWGQGTLVTVSS
VL: DIQMTQSPSSVSASVGDRVTITCQSSPSVWSNFLSWYQQKPGKAPKLLIYEASKLTSGVPSRFSGSGSGTDFTLTISSLQPEDFATYYCGGGYSSISDTTFGGGTKVEIK
notes: Humanized Fab: human gamma1 CH1, human kappa constant region (Km3); parent of all mutants; also called CA645 Fab; Fab_645
Kd (human serum albumin [1]): 2.97 nM and 3.8 nM
koff (human serum albumin [1]): 0.000167 s⁻¹ and 0.000211 s⁻¹
kon (human serum albumin [1]): 56200 M⁻¹ s⁻¹ and 55700 M⁻¹ s⁻¹
Kd (human serum albumin [2]): 12.5 nM
Kd (human serum albumin [3]): 2.72 nM and 2.7 nM
koff (human serum albumin [3]): 0.000161 s⁻¹ and 0.000158 s⁻¹
kon (human serum albumin [3]): 59100 M⁻¹ s⁻¹ and 58600 M⁻¹ s⁻¹
fold reduction in association rate for RbSA against HSA (rabbit serum albumin [4]): 18 fold
fold weaker affinity for MSA than for HSA (mouse serum albumin [5]): 1.2 fold
fold lower affinity for RSA than for HSA (rat serum albumin [6]): ~10 fold
Kd (human serum albumin [7]): 7.1 nM
Kd (human serum albumin [8]): 2.14 nM and 2.51 nM
koff (human serum albumin [8]): 0.000123 s⁻¹ and 0.00014 s⁻¹
kon (human serum albumin [8]): 57500 M⁻¹ s⁻¹ and 56000 M⁻¹ s⁻¹
Kd (human serum albumin [9]): 1.23 nM
koff (human serum albumin [9]): 0.000172 s⁻¹
kon (human serum albumin [9]): 139000 M⁻¹ s⁻¹
Kd (human serum albumin [10]): 13.3 nM
Kd (human serum albumin [11]): 4.6 nM
koff (human serum albumin [11]): 0.00041 s⁻¹
kon (human serum albumin [11]): 90000 M⁻¹ s⁻¹
Kd (rabbit serum albumin [12]): 162 nM
koff (rabbit serum albumin [12]): 0.00029 s⁻¹
kon (rabbit serum albumin [12]): 2000 M⁻¹ s⁻¹
Kd (mouse serum albumin [13]): 7.1 nM
koff (mouse serum albumin [13]): 0.00034 s⁻¹
kon (mouse serum albumin [13]): 48000 M⁻¹ s⁻¹
Kd (rat serum albumin [14]): 54 nM
koff (rat serum albumin [14]): 0.0013 s⁻¹
kon (rat serum albumin [14]): 24000 M⁻¹ s⁻¹
Kd (cynomolgus serum albumin): 3.3 nM
koff (cynomolgus serum albumin): 0.00035 s⁻¹
kon (cynomolgus serum albumin): 100000 M⁻¹ s⁻¹
binding result (bovine serum albumin): no binding
Kd (human serum albumin [15]): 1.8 nM
koff (human serum albumin [15]): 0.0004 s⁻¹
kon (human serum albumin [15]): 220000 M⁻¹ s⁻¹
Kd (mouse serum albumin [16]): 2.2 nM
koff (mouse serum albumin [16]): 0.00068 s⁻¹
kon (mouse serum albumin [16]): 310000 M⁻¹ s⁻¹
Kd (human serum albumin [17]): 10.7 nM
